assay: soluble on expression in E. coli; label from the status in PepcDB or PDB records

Soluble on expression in E. coli, not soluble:
MGSDKIHHHHHHMTENFWRELPRPFFVLAPMEDVTDVVFRHVVSEAGRPDVFFTEFTNSESYCHPDGKDSVRGRLTFTEDEQPIVAHIWGDKPENFRKMSIGMAELGFKGLDINMGCPVPNVAGNGKGSGLICRPAVAAELIQAAKAGGLPVSVKTRLGYTDVDEWREWLTHILKQDIANLSIHLRTRAEMSKVDAHWELIPEIKKLRDEVAPDTLLTINGDIPDRQTGLKLAEQYGVDGIMIGRGIFTNPFAFEKEPKEHSSKELLDLLRLHLDLHDEYSKEEARPYKPLPRFFKIYLRGFRGASELRNQCMNTKSTDEVRALLDDFERKYLDGIE
MGSDKIHHHHHHMTEPTRHQEHETETQEADLPNVCVVTHPLAAAGENATRSLLDILSAITSVALVTADLPADSEIRDRHELVELTQKGAGDSVVIAAFRFLLNQLRMCRVIAGRDEDVVLFFGATSYLLPIVVTRLLGKTVLVEPRGDVPLTLRLNWEQQLPDQVAAVLAGAVRALERAGFAVAHGVITYTPEMARQLDLHPESPSVYPTGARYVRTNEFCVQRPYADRDRVVGFLGRLDEEKGVRELAAVATQLPDDITFRFVGDGDLREWLEEDLAADIEAGHVELTGWVDHDKVPHALNDLELLILPSQPTEGLPTTILEALACGTPVYASPVSGVPDVVRDEETGFTIDSRESTALAAGIERILDRNDLAAISENGRTLIEREYSFDAACERYRGILRSVAGYSS
MGSDKIHHHHHHMTERFQQKNISVPDGIWIMKQTWNDVLFAHWPVDVSILRALVPSVLELDTYNGQAWISMLPFMLTNLRARYLPVIPGARAFPELNLRTYVTYKGKPGIYFFSLDADHRLAVLGARTFFHLPYFYADMKSEKNGDAIDYVSKRKNDKEAAFHAAYRPISAPFTAEKDSLDYWLTDDTGSTPLIAISSITKTSIIIRGCCKTPKQKFQSIR
MGSDKIHHHHHHMTGLLSKHDFRVALQEAIAGKASAKAAFSQAWMDGTLQRHHFARWAENHYHYVGPFADYLGYIYNNARDEQDGVKDLLLQSMYEFRHLQEGEAMVSHTDLLIRFAQACGTTRERVESPQACNPITRGMQAWCYATAIRESPVVATAALLVGLASQIPQIYARQIVPLRDPRVYGFSEHEVAFFALRITSDGAHAERGYRIVLDGATTPALQQRCLQFVRWGAEMRYAYAQAIYDQYVAPDLGARRVD
MGSDKIHHHHHHMTGQNPAPDEIVIDTGNPHPARMYDWFLGGKDNYPVDEEMGRQLLALDPRVPVMAKVNRAFMHRATRWLAMNGVRQFLDIGTGIPTEPNLHQIAQQVAPESRVVYCDNDPIVLAHAAALLRSTPEGVTEYVQADVRDPDTIVEQAGKVLDFSKPVALSLVALLHFVSDEDGAYELVDRLLAEVPSGSYLMLSHATADFTPKKSEEAGELYKARSLTLALRSRDEVARFFRDLELVEPGVEVPDKWRPELGEPVPGQDDEPIPGYAAVGRKP
MGSDKIHHHHHHMTGRVVTVFGGSGSIGRQLVALLADQGARVRVAVRDTEKAHFLKPLGQLGQIAPISASVSDAASVKRAVEGADQVVNLVGILAESGRRTFQAVHVDGAATVARASAEAGVDALIHMSALGADEASDANYSKTKALGEKAVREAFPAATILRPSVVFGPDDGFFNLFAGLQRLSPVLPYFTRDGFRRGGSGVCGIDLAGSGGPKFQPVYVGDVARAMIAILDTPALRGKTYELGGPRVYSMKEIMDLVVAVTRRRTLVVPLPFWVARLQGRLLEKLPNPPLTSDQVRLMEVDNVCSGALPGLGDLGIEPEAAEAILPTYLSRFRGLDRHMILRGDGRPPKV
MGSDKIHHHHHHMTGTESGASGGQPANSDDWDAVTARREAEALIIDVDGFEGPLDLLLTLSRTQKVDLRRISILALTEQYLVFIEKARQLRIELAADYLVMAAWLAFLKSKLLLPPEPGEEGPSGEDLAAHLAFQLERLAAMRDCAARLMAQDRLGRDRFVRGQTQAMTTNRKVIYTAGLLDLMQAYARIRTKDEFRPFVMDREAVLTMEEALDRLRGMVGYMGDWADLMSYLPDGWTTDPAKRRSAAAANFAAALELAKAGRVEIRQADTFSPIQLRRKEP
MGSDKIHHHHHHMTIDLTPYLPSQGPKYLAIARALAEAIRQGELTPGTRLPPHRCLADALAVSVQTVSRAYAQAEKMGLVQARVGSGTWINTLDDSQEAEYLRSADLPTEGAPVDLSIAHPVCPPGHHLRFRETLREVADSAHPDAIDACRPIAGLAHQRERASHWLQETLGVPGTPDDRVLCNGAAHGVMLAIATLVQHGDVVLTEALTDHGLIALSRTLGLQLRGVAIDEQGVIPEALDAACRRYHPRAVCLTPTQHNPTGATMDADRRDAIAEVLARHGTWLIEDDTHALLEPPGLTPLTARLPRQSFHVTSLTKATVPGLRAGYLSVPRGQLHHTLPRLRATSWMATPLIFEIADRWLADGSVEALAEEQRQLLAERQQLTRSRLQGHVMASRPTGLHVWLALPRAWRAEELQQQALREGLAIATAQPFMVGQGAPPQRVRLSLGAENDLERFDQGLTILARLLGEAPPPMLQNV
MGSDKIHHHHHHMTIIAGTVVKGKQLGRKLGFPTANVDAKIHGLRNGVYGVLATVNHQFHLGVMNIGVKPTVGSNLEKTLEIFLFDFHRDIYGEKIECSILFKIREERRFDSLESLTKQIKKDISCVAKRFELIGIMAPNKKESLLSHQELNLPDLCFYKKCNNLYGVNRGVYNVIDNWFFEYGITQVAYRRIYILSFLSFLKEDNPKVSSKYIRFGAGGLADKLNRFISSYVEESEENILG
MGSDKIHHHHHHMTILSDVKALGQQIWLDNLSRSLVQSGELAQMLKQGVCGVTSNPAIFQKAFAGDALYADEVAALKRQNLSPKQRYETMAVADVRAACDVCLAEHESTGGKTGFVSLEVSPELAKDAQGTVEEARRLHAAIARKNAMIKVPATDAGIDALETLVSDGISVNLTLLFSRAQTLKAYAAYARGIAKRLAAGQSVAHIQVVASFFISRVDSALDATLPDRLKGKTAIALAKAAYQDWEQYFTAPEFAALEAQGANRVQLLWASTGVKNPAYPDTLYVDSLIGVHTVNTVPDATLKAFIDHGTAKATLTESADEARARLAEIAALGIDVETLAARLQEDGLKQFEEAFEKLLAPLV
MGSDKIHHHHHHMTIQIDLPETSTNKIIYSDECKDILNLSVAKIQEMFKSSGIILFRGFGITHELMQVFAEQFSSRLTRDDDKPLVEPNGFVSLVDIGMHEILPHRENGSSPFSPDAVWFCCTVPAAEGGETLFWDGIQVWQKLSEELRKLFISKKIKFVHKFPADKWKHFLGSDATISDAKRVLDGFNNVKYQIDQEESIYTEYICSAVLQTKYGNQNAFVNDIITGNSNLKGSVNLELESALTFEDGSLIPDAAIEEIEKVMYSLTQEIRWKPGDLVMIDNSRFLHGRRAFSDNRRRLFSLLSYLNF
MGSDKIHHHHHHMTIRGKAYIAGIYEHPTRHAPDKSIAQLHAEVAKGALDDAGLTKADIDGYFCAGDAPGGVMAMVDYLGLKVRHFDSTDTGGCSYLVHLGHAAEAIAAGRCSVALITLAGKPRTGALPPRPVGAEGDFELAYGATTHNVYAMCAARHMHQYGTTSEQLAWIKVAASHHAQYNEHAMLRDVVTVEDVLNSPLIADPLHRMDCCVVTDGGGALIVTTEEIARSLKKPLVRMIGAGEAIKGPRGGHNLDLTYSAGVWSAPPAFEMAGVTPKDIKYASIYDSFTITVLMQLEDLGFCEKGQGGKFVADGNLISGVGKLPFNTDGGGLCSNHPVNRGGMTKLLEAVRQLRGEAHPKVQVPNCDLAIAHGTGGMLGIRHAASTCILERV
MGSDKIHHHHHHMTISAQCNLQKLAFATTLAVTIVLSQGRAIGQVKHGSPIELAKADVSTAVRQDMANEVRIVGSLTPIRRSTLTSRVSSTIIELPVQIGDVVNAGDLLVRFERGALESAVTGRKAEADALSAQTELAEAVLERNTRLGERGAASEATRLAALADVLDLRAQLRSKQAEVSDAERSLSHAEVRAEFGGVIAARSVEEGQTVPLNTQLMTIVELNRLEVDAGVPTSRIPLIRLKQSVELTVEGFPGRTFSGEVARISPTADAGSRAVRVFIAVDNEEGLLRGGMFTIGDLRVDDQKDVIALPAASIRHDADGFFVLKVEAGVLQRRPVGLGRSWSDRDLVQVSGVSEGDVIVTAPLPDLVVNTPVIIEGI
MGSDKIHHHHHHMTKEQSYPPTCIDCGTQNCKFKERTYPEFCLTTHLEQEDLEWALKQYNDNNKIMAASAEVEYEGYCRLTRVEEIMTFARKMGYKKLGIAYCIGLVNEARIFARILRANGFEVYSVICKVAGIAKSSIGIPKECEKIGAAMCNPILQARLLNQAYTELNVVIGLCVGHDSLFYKYSNAYTTTLVTKDRVTGHNPAAALYTANSYYRKKLMPEGEQSK
MGSDKIHHHHHHMTKFIVDSSYWNLFPTSKIGVILIKDYHMDRNLETELKQLLSDSHSLAKKYLQEKEFSQNRVIQTYRKAYQTFKTKKGARSSIEALLKRVNSGNEITSINPLVDIYNAASLRFGLPIGAEDSDTFRGDLKLTITNGGDEFYLIGEDFNRPTLSGELAYVDDVGAVCRCFNWRDGKRTMITDNTQNAFLVIELIDNGREIIFKEALDFIATNTNRFLKAKTQTIILDKEHSEITL
MGSDKIHHHHHHMTKPFYWNELNTYDFASLSPDSTIAVLPIASTEQHGPHLPIATDVAIANGMLAELKRQRPDDLNFLVLPTQEIGKANEHVYGPGTLSLSADLLIAAWTAIGAKVAEAGLRKLVIVNSHGGNVDIMSIVGRELRVRHKMAVVSTQWSRFGNPEGMISEHENRYGIHGGEVETSLMLHFRPELVRMDKAENFVSKAEWMKERSDFLQPLPPHSLAWIAHDLNPAGVVGDASKGTAEKGEAICRHQVSGFIQLLRDVRDYPLSALYSPE
MGSDKIHHHHHHMTKRDPSTLIRIARENGAEAEAEPLDLGARVRELRKARDWTLEQAASQAGLARSTLSKIENGQMSPTYDALKKLAVGLQISVPQLFTPPQKGQVNGRMTVTKSGSGSGHATATYEHELLADSLTKKQMLPYRARVRARAMEEFDGWVRHDGEEFLYVLTGVIRLYTEFYEPIEMRRGDSAYYDASMGHNVVSVSDEDATILWVTSLV
MGSDKIHHHHHHMTKSKISNPKLPMALQTSTIFSLQAPKDISLNEIDAELNQIWQSYGITGEDGGLPSATRATTFTLVVYEPEETQYLLAALGFYNGPIDGILGPQMAAALREVQKKHKLPETGTATQETLTILREEFAKGQRGGTGGEHAIAGLNSSSPRIADEIALRNPCRIIALFPITGEDEGVKAQVSAYCPIQKQSSSTLICCEYITLSGTAAALERIGGMIPALLIGGLPKFLWWKATPDPNNGLFKRLAAICNNVIVDSCNFNEPESDLLRLEELVEAGVPLADLNWRRLASWQELTAEAYDSPKRRAALREIDRVTIDYEKGNPAQALLFLGWLASRLEWQPVSYQKESGDYDITRIHFISQDQRQVEAELAGVPVADVGDIIGDLIALRLSSTNPQADCGTVICSETGGCMRMETHGGAQSAGLFQQVTSLSEQKAEALLSQQVQRWGRESLFEESLGVTANIFKLAN
MGSDKIHHHHHHMTLDNPVANKFSIAASQYKQHDVLQRITAKQLLDNAPLFGTLLDVGAGPGTSFNAFNDVEQVVAVDIAHGMLNQLTKQYPDYLPICSDAQALGLQSASIDSIYSNLALQWCQNLPEAFAEFHRVLRQNGECYLSVVVDGSLAELKTLGFRVNQFNSVSAIKAAFIASQDSPNDWLNIDIQVKSISVYFDDLRSLLYSIKGVGASFAQQGENNATHHHPLTKQQWQQRIALAETMRTDKGIPLTYQIAYIRAKRG

Source: the DeepSol protein solubility set
